How the values were obtained:
Settings in all cases: both partners purified
[1] = biological target: T1, HOPS complex with Vps33 C-terminally fused to yEGFP (S. cerevisiae, UniProt P38959 1-992; Q07468 1-1049; P12868 1-1029; P27801 1-918; Q03308 1-798; P20795 …); assay: confocal fluorescence imaging and FLIM of recruitment to supported lipid layers; 50 nM yEGFP-fused HOPS added for 5 min at room temperature to DOPC bilayers on glass or monolayers on graphene loaded with 150 nM pYpt7-GTP; washed 5 times with HBS
T1 construct: Vps41, HOPS subunit, S. cerevisiae; Vps39, HOPS subunit, S. cerevisiae; Vps11, HOPS subunit, S. cerevisiae; Vps18, HOPS subunit, S. cerevisiae; Vps16, HOPS subunit, S. cerevisiae; Vps33, HOPS subunit, S. cerevisiae; In the single-molecule experiment labelled with 50 pM Dy647-coupled anti-GFP nanobody; also called HOPS Vps33-yEGFP; HOPS Vps33; source: S. cerevisiae, overexpressed, purified (IgG …)

[2] = biological target: T2, HOPS complex with Vps39 C-terminally fused to yEGFP (S. cerevisiae, UniProt P38959 1-992; Q07468 1-1049; P12868 1-1029; P27801 1-918; Q03308 1-798; P20795 …); assay: as above
T2 construct: Vps41, HOPS subunit, S. cerevisiae; Vps39, HOPS subunit, S. cerevisiae; Vps11, HOPS subunit, S. cerevisiae; Vps18, HOPS subunit, S. cerevisiae; Vps16, HOPS subunit, S. cerevisiae; Vps33, HOPS subunit, S. cerevisiae; also called HOPS Vps39-yEGFP; yEGFP-tagged HOPS; source: S. cerevisiae, overexpressed, purified (IgG Sepharose, TEV elution); copies: + + + + +

[3] = biological target: T3, HOPS complex with Vps11 C-terminally fused to yEGFP (S. cerevisiae, UniProt P38959 1-992; Q07468 1-1049; P12868 1-1029; P27801 1-918; Q03308 1-798; P20795 …); assay: as above
T3 construct: Vps41, HOPS subunit, S. cerevisiae; Vps39, HOPS subunit, S. cerevisiae; Vps11, HOPS subunit, S. cerevisiae; Vps18, HOPS subunit, S. cerevisiae; Vps16, HOPS subunit, S. cerevisiae; Vps33, HOPS subunit, S. cerevisiae; In the single-molecule experiment labelled with 50 pM Dy647-coupled anti-GFP nanobody; also called HOPS Vps11-yEGFP; HOPS Vps11; source: S. cerevisiae, overexpressed, purified (IgG …)

[4] = biological target: T4, HOPS complex with Vps18 C-terminally fused to yEGFP (S. cerevisiae, UniProt P38959 1-992; Q07468 1-1049; P12868 1-1029; P27801 1-918; Q03308 1-798; P20795 …); assay: as above
T4 construct: Vps41, HOPS subunit, S. cerevisiae; Vps39, HOPS subunit, S. cerevisiae; Vps11, HOPS subunit, S. cerevisiae; Vps18, HOPS subunit, S. cerevisiae; Vps16, HOPS subunit, S. cerevisiae; Vps33, HOPS subunit, S. cerevisiae; also called HOPS Vps18-yEGFP; yEGFP-tagged HOPS; source: S. cerevisiae, overexpressed, purified (IgG Sepharose, TEV elution); copies: + + + + +

[5] = biological target: T5, HOPS complex with Vps16 C-terminally fused to yEGFP (S. cerevisiae, UniProt P38959 1-992; Q07468 1-1049; P12868 1-1029; P27801 1-918; Q03308 1-798; P20795 …); assay: as above
T5 construct: Vps41, HOPS subunit, S. cerevisiae; Vps39, HOPS subunit, S. cerevisiae; Vps11, HOPS subunit, S. cerevisiae; Vps18, HOPS subunit, S. cerevisiae; Vps16, HOPS subunit, S. cerevisiae; Vps33, HOPS subunit, S. cerevisiae; also called HOPS Vps16-yEGFP; HOPS (Vps16-yEGFP); source: S. cerevisiae, overexpressed, purified (IgG Sepharose, TEV elution); copies: + + + + +

[6] = biological target: T6, HOPS complex (S. cerevisiae, UniProt P38959 1-992; Q07468 1-1049; P12868 1-1029; P27801 1-918; Q03308 1-798; P20795 …); assay: FRAP and confocal imaging on supported lipid bilayers; 200 nM mNeon-pYpt7-GTP anchored in glass-supported lipid bilayers, 100 nM HOPS added; room temperature
T6 construct: Vps41, HOPS subunit, S. cerevisiae; Vps39, HOPS subunit, S. cerevisiae; Vps11, HOPS subunit, S. cerevisiae; Vps18, HOPS subunit, S. cerevisiae; Vps16, HOPS subunit, S. cerevisiae; Vps33, HOPS subunit, S. cerevisiae; 650 kDa heterohexamer; the 3HA follows the GAL1 promoter in the genotype; also called homotypic fusion and vacuole protein sorting complex; untagged HOPS; source: S. cerevisiae, …

[7] = biological target: T7, Mon1-Ccz1 complex (S. cerevisiae, UniProt P53129 1-644; P38273 1-704); assay: GIET fluorescence lifetime (FLIM) on graphene-supported lipid monolayers; 200 nM mNeon-pYpt7-GTP anchored in lipid layers on graphene and glass; 100 nM Mon1-Ccz1 or HOPS added for 5 min at room temperature, washed 8 times with HBS; lifetime ratio of mNeon
T7 construct: Mon1, S. cerevisiae; chromosomal locus under the GAL1 promoter; Ccz1, S. cerevisiae; chromosomal locus under the GAL1 promoter, TAP-tagged; Eluted from IgG beads by TEV cleavage; also called GEF; source: S. cerevisiae, overexpressed, purified (IgG Sepharose, TEV elution)
T7 sequence (looked up) 1: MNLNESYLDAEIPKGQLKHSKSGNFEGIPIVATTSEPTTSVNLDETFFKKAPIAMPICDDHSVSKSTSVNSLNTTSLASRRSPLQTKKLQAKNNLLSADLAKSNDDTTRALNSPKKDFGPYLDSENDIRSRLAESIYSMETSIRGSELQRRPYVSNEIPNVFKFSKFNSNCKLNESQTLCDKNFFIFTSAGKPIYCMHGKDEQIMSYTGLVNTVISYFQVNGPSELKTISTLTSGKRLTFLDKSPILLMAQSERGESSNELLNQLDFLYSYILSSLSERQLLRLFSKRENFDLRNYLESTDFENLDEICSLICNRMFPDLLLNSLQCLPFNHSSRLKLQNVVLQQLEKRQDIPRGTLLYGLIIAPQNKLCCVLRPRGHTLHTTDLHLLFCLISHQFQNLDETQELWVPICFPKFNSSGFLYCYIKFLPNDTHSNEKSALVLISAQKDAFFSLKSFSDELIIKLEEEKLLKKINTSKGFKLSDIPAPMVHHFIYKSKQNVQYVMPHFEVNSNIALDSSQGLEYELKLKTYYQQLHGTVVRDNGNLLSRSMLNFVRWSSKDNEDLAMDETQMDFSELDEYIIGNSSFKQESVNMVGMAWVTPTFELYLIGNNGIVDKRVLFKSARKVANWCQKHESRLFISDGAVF
T7 sequence (looked up) 2: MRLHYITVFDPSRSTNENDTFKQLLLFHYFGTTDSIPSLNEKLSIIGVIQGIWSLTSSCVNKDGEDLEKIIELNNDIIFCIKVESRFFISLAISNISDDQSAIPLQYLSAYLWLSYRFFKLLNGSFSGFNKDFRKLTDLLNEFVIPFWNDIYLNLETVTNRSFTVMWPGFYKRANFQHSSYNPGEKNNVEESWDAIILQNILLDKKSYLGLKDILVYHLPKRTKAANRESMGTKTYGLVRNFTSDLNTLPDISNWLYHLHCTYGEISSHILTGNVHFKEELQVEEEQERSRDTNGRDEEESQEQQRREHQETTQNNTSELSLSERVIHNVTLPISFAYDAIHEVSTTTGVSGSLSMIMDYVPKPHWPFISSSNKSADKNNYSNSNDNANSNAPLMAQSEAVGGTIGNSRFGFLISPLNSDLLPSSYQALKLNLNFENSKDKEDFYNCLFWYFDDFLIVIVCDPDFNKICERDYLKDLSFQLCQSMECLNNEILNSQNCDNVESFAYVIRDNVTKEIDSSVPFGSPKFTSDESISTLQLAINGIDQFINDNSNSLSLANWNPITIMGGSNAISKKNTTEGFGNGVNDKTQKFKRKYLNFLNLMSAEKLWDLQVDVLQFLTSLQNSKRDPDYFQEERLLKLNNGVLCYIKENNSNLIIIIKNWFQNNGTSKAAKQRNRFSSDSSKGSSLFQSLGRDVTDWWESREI

Measured: binding result

B1: prenylated Ypt7 (natural protein, S. cerevisiae, UniProt P32939 1-208, looked up)
chain: MSSRKKNILKVIILGDSGVGKTSLMHRYVNDKYSQQYKATIGADFLTKEVTVDGDKVATMQVWDTAGQERFQSLGVAFYRGADCCVLVYDVTNASSFENIKSWRDEFLVHANVNSPETFPFVILGNKIDAEESKKIVSEKSAQELAKSLGDIPLFLTSAKNAINVDTAFEEIARSALQQNQADTEAFEDDYNDAINIRLDGENNSCSC
modifications: C-terminal prenyl (geranylgeranyl) group, added by in vitro prenylation
notes: Ypt7, Rab7-like GTPase of S. cerevisiae; pET24d-GST-TEV-Ypt7 is surmised (the other construct carries a C-terminal His6 tag); GDP-loaded with GDI, GTP-loaded on membranes; also called pYpt7; pYpt7-GTP; source: E. coli BL21 (DE3) Rosetta, purified, prenylated in vitro
not listed: [6] | [7]
binds: all other assays above

B2: prenylated mNeonGreen-Ypt7 (natural protein, S. cerevisiae, UniProt P32939 1-208, looked up)
chain: MSSRKKNILKVIILGDSGVGKTSLMHRYVNDKYSQQYKATIGADFLTKEVTVDGDKVATMQVWDTAGQERFQSLGVAFYRGADCCVLVYDVTNASSFENIKSWRDEFLVHANVNSPETFPFVILGNKIDAEESKKIVSEKSAQELAKSLGDIPLFLTSAKNAINVDTAFEEIARSALQQNQADTEAFEDDYNDAINIRLDGENNSCSC
modifications: C-terminal prenyl (geranylgeranyl) group, added by in vitro prenylation
notes: Ypt7, Rab7-like GTPase of S. cerevisiae; GDP-loaded in the complex with GDI; GTP-loaded when anchored in the lipid layers; also called mNeon-pYpt7; mNeon-Ypt7; source: E. coli BL21 (DE3) Rosetta, purified (Glutathione Sepharose, TEV cleavage), prenylated in vitro; not shown: mNeonGreen (via a GGSGx3 linker), N-terminal, kept
binds: [6] | [7]

Reference: publication PMC7847308, “Nanoscopic anatomy of dynamic multi-protein complexes at membranes resolved by graphene-induced energy transfer” (eLife, 2021)
